Target: monomeric SARS-CoV-2 receptor binding domain (RBD) (SARS-CoV-2) (UniProt P0DTC2)

DH1047 antigen binding fragment (Fab)
Kd: < 0.02 nM

— patent publication US20240252617A1
